How the values were obtained:
[1] = system: control CHO cells (US28 negative); assay: FACS binding to US28 negative control CHO cells; design: species or system Chinese hamster; settings: Table 7A; (1:5) (200 μg/ml); secondary antibody background removed
Protocol: Flowcytometry was used to analyze cell surface binding by the US28 antibodies. Upon cell harvest, adherent non-infected and US28 overexpressing or HCMV infected cells were washed three times with cell staining buffer (phosphate-buffered saline (PBS (Amresco, Cleveland, 44139, USA) added 0.5% BSA and 0.05% Sodium Azide (NaN3)). The cells were trypisinized and then resuspended in DMEM with 10% FBS to inhibit the action of trypsin. The cells were then pelleted at 400×g for 10 minutes and washed three times in cell staining buffer. Cell viability and cell concentration were measured by tryphan blue viability assay and a cell counter (Countess, Invitrogen, Carlsbad, CA 92008, USA). The cell suspension was adjusted to 1×10^6 cells/mL with ice-cold cell staining buffer. The cells were blocked in 1 ml 10% FBS or 1% BSA in PBS per 1×10^6 cells, vortexed briefly, and incubated for 10-30 minutes to eliminate non-specific staining. The cells were then stained with the respective antibodies and appropriate negative controls.
In both cases (ECD1 and ECD3), the antibodies were added to the cells, vortexed and incubated on ice for 15 to 30 minutes up to overnight and washed twice with cell staining buffer to remove any unbound antibodies. In addition, the CMV Immediate Early Antigen (IE) Alexa488 Ab, MAB810X, 1:50 was included to verify HCMV infected cells in one of the experiments. Because it binds to an intracellular, HCMV encoded protein, it was added after permeabilizing the cells in 70% ethanol for 30 min on ice.
1:500-1:5000 in cell staining buffer of the appropriate fluorescent-conjugated appropriate secondary antibodies were added and incubated on ice for 15-20 min in the dark. The cells were washed three times to remove any unbound antibodies. The cells were then fixed with 0.5% paraformaldehyde (PFA) for 30 min on ice and resuspended in 200-500 μL cell staining buffer for final flow cytometric analysis using an Accuri C6 flow cytometry system (BD Biosciences, San Jose, CA 95131, USA). Data analyses were performed using FlowJo software v8.8 (Treestar Inc. Ashland, OR 97520, USA).
Background levels were determined using the respective secondary antibodies (anti-mFc-FITC for the subclones, or anti-myc-PE for the VUN100 molecules) with CHO cells and CHO-US28 cells. Given that US28 is expressed on the cell surface, the cells were non-permeabilised for these experiments.

[2] = target: T1, Peptide-2 […] (SEQ ID NO: 7), US28 ECD3 4D variant (Human cytomegalovirus, UniProt P69332); assay: ELISA, binding to Bio-Peptide-2; design: species or system HCMV; settings: 4D variant peptide
T1 construct: made in house; host or cells: chemical synthesis
Protocol: Microtiter plate wells were coated with 100 μl of the solution containing: (i) Bio-Peptide-N; or (ii) Bio-Peptide-1 and Bio-Peptide-2; at a concentration of between 1-10 μg/ml in coating buffer, consisting of Na2CO3, 1.5 g and NaHCO3, 2.93 g in 1 L of distilled water in pH 9.6, and then incubated for 1-2 hours at room temperature. The plate was washed 3 times in wash buffer consisting of PBS containing 0.05% v/v Tween-20 and blotted with paper towels thereafter. 150 μl of blocking solution containing Phosphate buffered saline (PBS) containing 1% w/v BSA, was added to each well and the plate was incubated for 2 hours at 37° C. The wells were washed 4 times in wash buffer and blotted on paper towels after the last wash. 100 μl of antibody dilution was added to each well and the plate was incubated for 1 hour at 37° C. and thereafter washed 3 times in wash buffer. 100 μl enzyme-conjugated secondary antibody (appropriately diluted in wash buffer) was added to each well and the plate was incubated for 1 hour at 37° C. The wells were then again washed 3 times in wash buffer and blotted with paper towels after the last wash. […] The absorbance values were read immediately at the appropriate wavelength and the data analyzed by Cmax Plus, Molecular Devices, San Jose, CA 95134, USA, […]

[3] = target: T2, US28 protein from HCMV strain Merlin on HEK Phoenix Ampho cells (Human cytomegalovirus, UniProt P69332, S330G); assay: Flow cytometry, HEK Phoenix Ampho cells transfected with US28 (Merlin); format: binding; settings: mock subtracted, fold-difference minus 1, sign = increase or decrease
T2 construct: expressed in transfected cells; host or cells: HEK Phoenix Ampho (ATCC-CRL-3213)
Protocol: (§1) ii. Materials: • Cells: HEK Phoenix Ampho (ATCC-CRL-3213), p 21. • Staining buffer: PBS with 1% BSA, 2 mM EDTA. • Plasmid: Encoding US28 protein from different HCMV strains: DB; TB40/E; Merlin; and VHL/E. • Blocking: Human TruStain FcX™ (ref 422302). • Live Dead: Invitrogen™ eBioscience™ Fixable Viability Dye eFluor™ 780 (ref 13539140). • Primary antibodies: 7B1F3 (6.76 nM=1 μg/ml); hum7B1F3 (6.76 nM=1 μg/ml).
(§2) The day before transfection, HEK Ampho cells were seeded in a 1×6-well plate with 1×10^6 live cells/well, 2 mL/well. Seeded 4 wells for HEKPhoenix_plasmids. Seeded 2 wells for HEKPhoenix_Mock transfected. Incubated the cells in a 37° C. incubator with >80% relative humidity and 5% CO2.
(§3) After 1 day, cells will have adhered and reached >60% confluency. Removed 700 uL media from each well prior to transfection. Allowed X-tremeGENE™ HP DNA Transfection Reagent, DNA and diluent Opti-MEM® I Reduced Serum Medium to warm to +15° C. to +25° C., and vortexed gently. Placed 100 μL diluent in a sterile tube for each condition. Added 1 μg plasmid DNA. Pipetted gently to mix (DNA was not added for the mock condition): • DB (683.3 ng/μL): 1.46 μL • TB40/E (742.05 ng/μL): 1.35 μL • Merlin (70.78 ng/μL): 14.13 μL • VHL/E (51.87 ng/μL): 19.28 μL
(§4) Added 3 μL X-tremeGENE™ HP DNA Transfection Reagent to the diluted DNA. (3:1 ratio of reagent to DNA). Pipetted gently to mix, then: • 1. […]

[4] = system: HEKPhoenix_Mock transfected cells; assay: Flow cytometry, HEKPhoenix Mock transfected cells; format: binding, human; settings: antibody concentration 6.76 nM, Myc tag detection
Protocol: as §1, §2, §3, §4

[5] = target: T3, US28 protein from HCMV strain DB on HEK Phoenix Ampho cells (Human cytomegalovirus, UniProt P69332, D170N/D19A); assay: Flow cytometry, HEK Phoenix Ampho cells transfected with US28 (DB); format: binding; settings: mock subtracted, fold-difference minus 1, sign = increase or decrease
T3 construct: expressed in transfected cells; host or cells: HEK Phoenix Ampho (ATCC-CRL-3213)
Protocol: as §1, §2, §3, §4

[6] = target: T4, US28 protein from HCMV strain TB40/E on HEK Phoenix Ampho cells (Human cytomegalovirus, UniProt P69332, A8T/D15E/E18L/V24T); assay: Flow cytometry, HEK Phoenix Ampho cells transfected with US28 (TB40/E); format: binding; settings: mock subtracted, fold-difference minus 1, sign = increase or decrease
T4 construct: expressed in transfected cells; host or cells: HEK Phoenix Ampho (ATCC-CRL-3213)
Protocol: as §1, §2, §3, §4

Molecule | Percentage of binding to CHO cells [1] | Absorbance values, Peptide 2 [2] | Variation in binding, relative to determined binding to US28 as encoded by VHL/E; Merlin [3] | Preliminary Binding Data, Mock [4] | Variation in binding, relative to determined binding to US28 as encoded by VHL/E; DB [5] | Variation in binding, relative to determined binding to US28 as encoded by VHL/E; TB40/E [6]
13-1C10-1C10: mouse hybridoma subclone antibody against US28 ECD3 Peptide-1 and -2; sequenced (antibody) heavy: EVKLVESGGVLVKPGGSLKFSCAASGFTFSSHALSWVRQTPEKRLEWVASISSRGRTYYPDSVKGRFTVSRDNARNILYLQVSSLRSEDTAMYYCTRGGTHYSYGNGFDFWGQGTTLTVSSAKTTPPSVYPLAPGSAAQTNSMVTLGCLVKGYFPEPVTVTWNSGSLSSGVHTFPAVLQSDLYTLSSSVTVPSSTWPSETVTCNVAHPASSTKVDKKIVPRDCGCKPCICTVPEVSSVFIFPPKPKDVLTITLTPKVTCVVVDISKDDPEVQFSWFVDDVEVHTAQTQPREEQFNSTFRSVSELPIMHQDWLNGKEFKCRVNSAAFPAPIEKTISKTKGRPKAPQVYTIPPPKEQMAKDKVSLTCMITDFFPEDITVEWQWNGQPAENYKNTQPIMDTDGSYFIYSKLNVQKSNWEAGNTFTCSVLHEGLHNHHTEKSLSHSPGK light: QIVLTQSPAIMSASPGEKVTMTCSVSSSVSYMHWYQQKSGTSPKRWIYDTSKLASGVPARFSGSGSGTSYSLTISTMEAEDAATYYCQQWSNNPPITFGAGTKLELKRADAAPTVSIFPPSSEQLTSGGASVVCFLNNFYPKDINVKWKIDGSERQNGVLNSWTDQDSKDSTYSMSSTLTLTKDEYERHNSYTCEATHKTSTSPIVKSFNRNEC | 0.62% | 3.029 | – | – | – | –
14-1H3-1A10: mouse hybridoma subclone antibody against US28 ECD3 Peptide-1 and -2; sequenced (antibody) heavy: EVKLVESGGVLVKPGGSLKFSCAASGFTLSSHALSWVRQTPEKRLEWVASISSRGRTYYPDSVKGRFTVSRDNARNILYLQVSSLRSEDTAMYYCTRGGTHYSYGNGFDFWGQGTTLTVSSAKTTPPSVYPLAPGSAAQTNSMVTLGCLVKGYFPEPVTVTWNSGSLSSGVHTFPAVLQSDLYTLSSSVTVPSSTWPSETVTCNVAHPASSTKVDKKIVPRDCGCKPCICTVPEVSSVFIFPPKPKDVLTITLTPKVTCVVVDISKDDPEVQFSWFVDDVEVHTAQTQPREEQFNSTFRSVSELPIMHQDWLNGKEFKCRVNSAAFPAPIEKTISKTKGRPKAPQVYTIPPPKEQMAKDKVSLTCMITDFFPEDITVEWQWNGQPAENYKNTQPIMDTDGSYFIYSKLNVQKSNWEAGNTFTCSVLHEGLHNHHTEKSLSHSPGK light: QIVLTQSPAIMSASPGEKVTMTCSVSSSVSYMHWYQQKSGTSPKRWIYDTSKLASGVPARFSGSGSGTSYSLTISTMEAEDAATYYCQQWSNNPPITFGAGTKLELKRADAAPTVSIFPPSSEQLTSGGASVVCFLNNFYPKDINVKWKIDGSERQNGVLNSWTDQDSKDSTYSMSSTLTLTKDEYERHNSYTCEATHKTSTSPIVKSFNRNEC | 0.58% | 2.842 | – | – | – | –
7B1F3-Myc: 7B1F3 labelled with a Myc tag (antibody, V domains shown) VH: EVQLQQSGAELAKPGASVKMSCKASGYTFTNYWMHWVKQRPGQGLEWIGYVNPRTGYTEYNQKFKDKATLTADKSSRTAYMQLSSLTSEDSAVYSCARILNGTGFAYWGQGTLVTVSA VL: DIVLTQSPSSLTVSVGEKFTMSCKSSQSLLYSSNQKNYLAWYQQKPGQSPKLLIYWASTRESGVPDRFTGSGSGTDFTLAISSVKPEDLAIYYCQQYYSFPLTFGAGTKLEIK | – | – | +0.21 | 0.06 | +0.64 | +0.14
